Like-named read-outs stand apart in the source and are kept apart here.
Tests used:
[1] = for In vitro data in rat plasma (release of free cabazitaxel): 37° C., formulation 1 mg/mL; for release profile (in words): comparison of linkers
[2] = Nanoparticle size (hydrodynamic diameter) by dynamic light scattering (DLS); conditions: nanodispersion 10 mg/mL in WFI

Substance	In vitro data in rat plasma (release of free cabazitaxel) ([1]; Time 0 h)	In vitro data in rat plasma (release of free cabazitaxel) ([1]; Time 1 h)	In vitro data in rat plasma (release of free cabazitaxel) ([1]; Time 2 h)	In vitro data in rat plasma (release of free cabazitaxel) ([1]; Time 4 h)	In vitro data in rat plasma (release of free cabazitaxel) ([1]; Time 18 h)	In vitro data in rat plasma (release of free cabazitaxel) ([1]; Time 24 h)	free cabazitaxel released in 24 h ([1]; rat plasma)	release profile (in words) ([1]; rat plasma)	release of succinyl-cabazitaxel from the formulation ([1]; rat plasma, quantified using HPLC)	Mean diameter (using DLS) [2]	PDI (DLS) [2]
mPEG2000-PLA10000-Y-succinyl-2′-cabazitaxel [VIII′]	0	0.84	1.68	3.30	17.35	20.16	~17%	slowest release profile	< 1 % of cabazitaxel present initially in the nanoparticles		
mPEG-PLA-diglycolyl-cabazitaxel [XI]	2.20	5.36	8.67	14.81	49.39	55.09	~47%	relatively rapid release		52 nm	0.18
mPEG-PLA-glutaryl-cabazitaxel	0	1.31	2.30	5.29	23.51	31.72	~27%			60 nm	0.21
mPEG-PLA-succinyl-larotaxel [IX]										48 nm	0.17

— patent publication US9278137B2, “Polymeric conjugates of active principles, their process of preparation and their polymeric intermediates” (SANOFI, priority 2010, dated 2016)
